Data taken from PMC8568920 (2021).

Target: biotinylated lysocin E derivative, natural type (biotin (position not given); fatty acid chain moiety)
Assay: BLI

Kd: 5.6 µM
B1: recombinant human apolipoprotein A-I ∆NM variant (domain or fragment)
chain: PVTQEFWDNLEKETEGLRQEMSKDLEEVKAKVQPYLDDFQKKWQEEMELYRQKVEPLRAELQEGARQKLHELQEKLSPLGTHLAPYSDELRQRLAARLEALKENGGARLAEYHAKATEHLSTLSEKAKPALEDLRQGLLPVLESFKVSFLSALEEYTKKLNTQ
